From patent publication EP4786492A1
Substitutions are numbered along the chain they refer to. One block for each binder: values may come before it.

What was measured:
[1] = molecular target: DLL3 endogenously expressed on NCI-H82 cells (UniProt Q9NYJ7); assay: FACS on NCI-H82 cells; antibody 0.8 nM
[2] = molecular target: human delta-like ligand 3 (DLL3) on SHP77 cells (human) (UniProt Q9NYJ7); assay: FACS on SHP77 cells
[3] = molecular target: DLL3 endogenously expressed on NCI-H82 cells (UniProt Q9NYJ7); assay: FACS on NCI-H82 cells; antibody 0.0064 nM
[4] = molecular target: human DLL3 protein (extracellular segment, His tag) (human) (UniProt Q9NYJ7); assay: SPR (Biacore 8K), antibody captured on Protein A chip, DLL3 antigen in solution, 1:1 Langmuir fit
human DLL3 protein (extracellular segment, His tag) (human), sequence (Q9NYJ7 27-492): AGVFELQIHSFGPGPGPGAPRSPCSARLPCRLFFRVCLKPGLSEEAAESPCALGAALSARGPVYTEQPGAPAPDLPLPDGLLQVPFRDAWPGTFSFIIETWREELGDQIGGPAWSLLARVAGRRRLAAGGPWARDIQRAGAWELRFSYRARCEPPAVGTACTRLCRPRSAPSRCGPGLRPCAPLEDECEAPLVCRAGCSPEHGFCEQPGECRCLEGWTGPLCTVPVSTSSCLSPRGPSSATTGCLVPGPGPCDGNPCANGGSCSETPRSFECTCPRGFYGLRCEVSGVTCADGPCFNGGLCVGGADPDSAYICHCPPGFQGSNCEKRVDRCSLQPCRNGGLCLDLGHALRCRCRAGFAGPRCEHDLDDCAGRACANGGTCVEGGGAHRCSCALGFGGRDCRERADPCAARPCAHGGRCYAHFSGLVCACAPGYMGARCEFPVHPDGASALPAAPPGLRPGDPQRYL

[5] = molecular target: mouse DLL3 on CHO-K1-mDLL3 cells (mouse) (UniProt O88516); assay: FACS, CHO-K1-mDLL3 cells, 20 nM antibody
mouse DLL3 on CHO-K1-mDLL3 cells (mouse), sequence (O88516 other isoform, or with tags, fused parts or gaps limits assumed): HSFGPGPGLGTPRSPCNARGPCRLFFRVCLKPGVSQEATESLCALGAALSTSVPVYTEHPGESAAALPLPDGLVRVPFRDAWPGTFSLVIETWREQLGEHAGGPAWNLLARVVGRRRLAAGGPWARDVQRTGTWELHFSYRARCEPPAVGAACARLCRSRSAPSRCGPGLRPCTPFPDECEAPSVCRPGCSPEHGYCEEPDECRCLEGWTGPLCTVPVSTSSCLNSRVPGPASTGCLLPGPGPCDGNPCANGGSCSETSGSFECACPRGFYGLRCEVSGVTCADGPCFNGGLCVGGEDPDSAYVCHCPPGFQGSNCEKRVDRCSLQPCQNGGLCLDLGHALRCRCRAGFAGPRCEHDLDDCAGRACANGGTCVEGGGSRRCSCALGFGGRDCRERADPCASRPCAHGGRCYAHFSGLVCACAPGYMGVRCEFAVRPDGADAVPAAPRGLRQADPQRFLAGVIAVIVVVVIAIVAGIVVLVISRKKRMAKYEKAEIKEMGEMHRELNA

[6] = molecular target: human DLL3 protein expressed on CHO-K1 recombinant cells (human DLL3 extracellular segment fused to EpCAM transmembrane and intracellular regions) (human) (UniProt Q9NYJ7); assay: FACS, CHO-K1 hDLL3 cells, 0.16 nM antibody
human DLL3 protein expressed on CHO-K1 recombinant cells (human DLL3 extracellular segment fused to EpCAM transmembrane and intracellular regions) (human), sequence (Q9NYJ7 other isoform, or with tags, fused parts or gaps limits assumed): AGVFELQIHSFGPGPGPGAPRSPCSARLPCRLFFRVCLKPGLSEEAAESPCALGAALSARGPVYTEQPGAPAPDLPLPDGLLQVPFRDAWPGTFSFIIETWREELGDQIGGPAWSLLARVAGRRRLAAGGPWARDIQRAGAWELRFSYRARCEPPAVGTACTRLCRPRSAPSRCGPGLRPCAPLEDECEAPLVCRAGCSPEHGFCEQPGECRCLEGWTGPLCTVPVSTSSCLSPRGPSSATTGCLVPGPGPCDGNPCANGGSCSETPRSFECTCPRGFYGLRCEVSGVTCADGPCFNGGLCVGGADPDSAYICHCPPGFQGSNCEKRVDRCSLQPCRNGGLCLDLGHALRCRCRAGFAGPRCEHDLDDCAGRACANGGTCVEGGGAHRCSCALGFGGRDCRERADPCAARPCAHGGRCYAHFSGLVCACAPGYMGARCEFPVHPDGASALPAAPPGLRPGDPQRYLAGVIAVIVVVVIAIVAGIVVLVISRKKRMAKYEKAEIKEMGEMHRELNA

[7] = molecular target: monkey DLL3 on CHO-K1-cyno DLL3 cells (cynomolgus monkey); assay: FACS, CHO-K1-cyno DLL3 cells, 0.00128 nM antibody
monkey DLL3 on CHO-K1-cyno DLL3 cells (cynomolgus monkey), sequence (chain, as listed by the source limits assumed): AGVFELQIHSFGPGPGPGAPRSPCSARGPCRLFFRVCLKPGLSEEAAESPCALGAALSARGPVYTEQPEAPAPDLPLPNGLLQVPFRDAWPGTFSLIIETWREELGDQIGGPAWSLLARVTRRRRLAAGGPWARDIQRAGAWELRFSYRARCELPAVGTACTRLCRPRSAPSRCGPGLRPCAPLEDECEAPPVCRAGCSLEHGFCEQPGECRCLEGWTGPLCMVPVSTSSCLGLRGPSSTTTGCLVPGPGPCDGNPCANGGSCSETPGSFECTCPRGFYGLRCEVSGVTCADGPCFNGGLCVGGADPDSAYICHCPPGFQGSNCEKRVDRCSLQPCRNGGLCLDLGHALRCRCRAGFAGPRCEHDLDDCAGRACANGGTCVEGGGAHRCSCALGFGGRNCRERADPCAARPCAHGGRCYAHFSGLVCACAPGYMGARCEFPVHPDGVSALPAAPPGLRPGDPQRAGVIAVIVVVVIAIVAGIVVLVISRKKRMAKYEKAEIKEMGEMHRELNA

[8] = molecular target: human DLL1 protein (Acro, Cat. No. DL1-H52H8) (human) (UniProt O00548); assay: ELISA, coated hDLL1; maximum over 0.1, 1, 10, 100 nM antibody
human DLL1 protein (Acro, Cat. No. DL1-H52H8) (human), sequence (O00548 18-540 limits assumed): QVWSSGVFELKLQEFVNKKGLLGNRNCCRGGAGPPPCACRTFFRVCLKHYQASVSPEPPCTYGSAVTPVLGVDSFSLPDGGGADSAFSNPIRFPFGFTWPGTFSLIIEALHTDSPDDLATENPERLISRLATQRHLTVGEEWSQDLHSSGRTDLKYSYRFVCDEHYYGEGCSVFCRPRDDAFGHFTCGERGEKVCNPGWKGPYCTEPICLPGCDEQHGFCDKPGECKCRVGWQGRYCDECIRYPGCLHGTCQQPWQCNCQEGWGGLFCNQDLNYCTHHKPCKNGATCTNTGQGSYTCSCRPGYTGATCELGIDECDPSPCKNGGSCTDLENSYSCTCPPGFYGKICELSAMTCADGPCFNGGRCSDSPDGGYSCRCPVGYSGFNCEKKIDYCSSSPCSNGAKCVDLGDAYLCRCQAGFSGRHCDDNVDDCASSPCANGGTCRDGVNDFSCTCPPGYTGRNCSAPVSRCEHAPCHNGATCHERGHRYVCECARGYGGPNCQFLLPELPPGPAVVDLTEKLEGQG

[9] = molecular target: monkey DLL3 on CHO-K1-cyno DLL3 cells (cynomolgus monkey); assay: FACS, CHO-K1-cyno DLL3 cells, 0.8 nM antibody
[10] = molecular target: mouse DLL3 on CHO-K1-mDLL3 cells (mouse) (UniProt O88516); assay: FACS, CHO-K1-mDLL3 cells, 4 nM antibody
[11] = molecular target: human DLL4 protein (Acro, Cat. No. DL4-H5227) (human) (UniProt Q9NR61); assay: ELISA, coated hDLL4; maximum over 0.1, 1, 10, 100 nM antibody
human DLL4 protein (Acro, Cat. No. DL4-H5227) (human), sequence (Q9NR61 27-524 limits assumed): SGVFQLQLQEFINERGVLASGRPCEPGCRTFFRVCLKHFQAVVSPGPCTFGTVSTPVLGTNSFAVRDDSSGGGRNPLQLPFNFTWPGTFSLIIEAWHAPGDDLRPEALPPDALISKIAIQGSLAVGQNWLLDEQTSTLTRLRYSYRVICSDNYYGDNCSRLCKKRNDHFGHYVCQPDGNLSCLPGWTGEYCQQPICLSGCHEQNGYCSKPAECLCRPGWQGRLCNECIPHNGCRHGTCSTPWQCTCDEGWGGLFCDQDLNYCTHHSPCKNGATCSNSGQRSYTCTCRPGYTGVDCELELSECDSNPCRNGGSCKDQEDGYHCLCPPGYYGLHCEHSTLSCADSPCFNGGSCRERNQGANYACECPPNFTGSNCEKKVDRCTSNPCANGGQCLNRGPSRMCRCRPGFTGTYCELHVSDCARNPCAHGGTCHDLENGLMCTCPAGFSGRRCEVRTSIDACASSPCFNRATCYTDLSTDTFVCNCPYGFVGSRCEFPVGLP

[12] = molecular target: human DLL3 protein expressed on CHO-K1 recombinant cells (human DLL3 extracellular segment fused to EpCAM transmembrane and intracellular regions) (human) (UniProt Q9NYJ7); assay: FACS, CHO-K1 hDLL3 cells, 0.00128 nM antibody
[13] = molecular target: monkey DLL3 on CHO-K1-cyno DLL3 cells (cynomolgus monkey); assay: FACS, CHO-K1-cyno DLL3 cells, 0.0064 nM antibody
[14] = molecular target: monkey DLL3 on CHO-K1-cyno DLL3 cells (cynomolgus monkey); assay: FACS, CHO-K1-cyno DLL3 cells, 0.16 nM antibody
[15] = molecular target: monkey DLL3 on CHO-K1-cyno DLL3 cells (cynomolgus monkey); assay: FACS, CHO-K1-cyno DLL3 cells, 0.032 nM antibody
[16] = molecular target: mouse DLL3 on CHO-K1-mDLL3 cells (mouse) (UniProt O88516); assay: FACS, CHO-K1-mDLL3 cells, 0.032 nM antibody
[17] = molecular target: mouse DLL3 on CHO-K1-mDLL3 cells (mouse) (UniProt O88516); assay: FACS, CHO-K1-mDLL3 cells, 0.8 nM antibody
[18] = molecular target: monkey DLL3 on CHO-K1-cyno DLL3 cells (cynomolgus monkey); assay: FACS, CHO-K1-cyno DLL3 cells, 4 nM antibody
[19] = molecular target: DLL3 endogenously expressed on NCI-H82 cells (UniProt Q9NYJ7); assay: FACS on NCI-H82 cells; antibody 20 nM
[20] = molecular target: human DLL3 protein expressed on CHO-K1 recombinant cells (human DLL3 extracellular segment fused to EpCAM transmembrane and intracellular regions) (human) (UniProt Q9NYJ7); assay: FACS, CHO-K1 hDLL3 cells, 0.032 nM antibody
[21] = molecular target: mouse DLL3 on CHO-K1-mDLL3 cells (mouse) (UniProt O88516); assay: FACS, CHO-K1-mDLL3 cells, 100 nM antibody
[22] = molecular target: mouse DLL3 on CHO-K1-mDLL3 cells (mouse) (UniProt O88516); assay: FACS, CHO-K1-mDLL3 cells, 0.16 nM antibody
[23] = molecular target: DLL3 endogenously expressed on NCI-H82 cells (UniProt Q9NYJ7); assay: FACS on NCI-H82 cells; antibody 0.032 nM
[24] = molecular target: mouse DLL3 on CHO-K1-mDLL3 cells (mouse) (UniProt O88516); assay: FACS, CHO-K1-mDLL3 cells, 0.0064 nM antibody
[25] = molecular target: monkey DLL3 on CHO-K1-cyno DLL3 cells (cynomolgus monkey); assay: FACS, CHO-K1-cyno DLL3 cells, 100 nM antibody
[26] = molecular target: human DLL3 protein expressed on CHO-K1 recombinant cells (human DLL3 extracellular segment fused to EpCAM transmembrane and intracellular regions) (human) (UniProt Q9NYJ7); assay: FACS, CHO-K1 hDLL3 cells, 0.8 nM antibody
[27] = molecular target: human DLL3 protein expressed on CHO-K1 recombinant cells (human DLL3 extracellular segment fused to EpCAM transmembrane and intracellular regions) (human) (UniProt Q9NYJ7); assay: FACS, CHO-K1 hDLL3 cells, 0.0064 nM antibody
[28] = molecular target: DLL3 endogenously expressed on NCI-H82 cells (UniProt Q9NYJ7); assay: FACS on NCI-H82 cells; antibody 100 nM
[29] = molecular target: DLL3 endogenously expressed on NCI-H82 cells (UniProt Q9NYJ7); assay: FACS on NCI-H82 cells; antibody 4 nM
[30] = molecular target: monkey DLL3 on CHO-K1-cyno DLL3 cells (cynomolgus monkey); assay: FACS, CHO-K1-cyno DLL3 cells, 20 nM antibody
[31] = molecular target: human DLL3 protein expressed on CHO-K1 recombinant cells (human DLL3 extracellular segment fused to EpCAM transmembrane and intracellular regions) (human) (UniProt Q9NYJ7); assay: FACS, CHO-K1 hDLL3 cells, 100 nM antibody
[32] = molecular target: human DLL3 protein expressed on CHO-K1 recombinant cells (human DLL3 extracellular segment fused to EpCAM transmembrane and intracellular regions) (human) (UniProt Q9NYJ7); assay: FACS, CHO-K1 hDLL3 cells, 4 nM antibody
[33] = molecular target: mouse DLL3 on CHO-K1-mDLL3 cells (mouse) (UniProt O88516); assay: FACS, CHO-K1-mDLL3 cells, 0.00128 nM antibody
[34] = molecular target: DLL3 endogenously expressed on NCI-H82 cells (UniProt Q9NYJ7); assay: FACS on NCI-H82 cells; antibody 0.00128 nM
[35] = molecular target: DLL3 endogenously expressed on NCI-H82 cells (UniProt Q9NYJ7); assay: FACS on NCI-H82 cells; antibody 0.16 nM
[36] = molecular target: human DLL3 protein expressed on CHO-K1 recombinant cells (human DLL3 extracellular segment fused to EpCAM transmembrane and intracellular regions) (human) (UniProt Q9NYJ7); assay: FACS, CHO-K1 hDLL3 cells, 20 nM antibody

DLL3 endogenously expressed on NCI-H82 cells, sequence (Q9NYJ7 27-618): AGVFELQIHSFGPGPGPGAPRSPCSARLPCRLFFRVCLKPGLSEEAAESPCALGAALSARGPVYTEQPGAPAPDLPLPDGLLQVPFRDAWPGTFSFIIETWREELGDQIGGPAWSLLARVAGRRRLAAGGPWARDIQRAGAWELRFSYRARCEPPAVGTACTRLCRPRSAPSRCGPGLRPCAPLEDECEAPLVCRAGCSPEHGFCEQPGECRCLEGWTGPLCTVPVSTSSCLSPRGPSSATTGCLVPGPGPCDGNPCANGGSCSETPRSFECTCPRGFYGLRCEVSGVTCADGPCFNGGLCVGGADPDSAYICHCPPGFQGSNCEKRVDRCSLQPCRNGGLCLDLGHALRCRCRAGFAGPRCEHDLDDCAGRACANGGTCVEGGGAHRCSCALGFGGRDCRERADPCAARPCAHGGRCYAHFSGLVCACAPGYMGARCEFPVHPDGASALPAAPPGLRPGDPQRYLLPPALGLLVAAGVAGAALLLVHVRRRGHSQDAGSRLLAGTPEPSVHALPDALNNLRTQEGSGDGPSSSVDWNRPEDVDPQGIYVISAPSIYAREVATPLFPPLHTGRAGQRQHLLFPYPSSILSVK
human delta-like ligand 3 (DLL3) on SHP77 cells (human), sequence (Q9NYJ7 27-618, stated change not applied): as the sequence (Q9NYJ7 27-618) above

MFI [1]: 580
MFI at 0.00128 nM [2]: 90 MFI
MFI at 0.0064 nM [2]: 94 MFI
MFI at 0.032 nM [2]: 116 MFI
MFI at 0.16 nM [2]: 192 MFI
MFI at 0.8 nM [2]: 403 MFI
MFI at 4 nM [2]: 628 MFI
MFI at 20 nM [2]: 818 MFI
MFI at 100 nM [2]: 1120 MFI
MFI [3]: 130
Kd [4]: 77.2 pM
koff [4]: 7.84e-05 s⁻¹
kon [4]: 1.02e+06 M⁻¹ s⁻¹
MFI [5]: 355 MFI
MFI [6]: 2130 MFI
MFI [7]: 215 MFI
Emax of OD450 nm binding value [8]: 0.1 OD450 nm
MFI [9]: 9960 MFI
MFI [10]: 311 MFI
Emax of OD450 nm binding value [11]: 0.13 OD450 nm
MFI [12]: 221 MFI
MFI [13]: 306 MFI
MFI [14]: 2190 MFI
MFI [15]: 692 MFI
MFI [16]: 148 MFI
MFI [17]: 268 MFI
MFI [18]: 25900 MFI
MFI [19]: 784
MFI [20]: 698 MFI
MFI [21]: 389 MFI
MFI [22]: 208 MFI
MFI [23]: 204
MFI [24]: 122 MFI
MFI [25]: 32800 MFI
MFI [26]: 9190 MFI
MFI [27]: 306 MFI
MFI [28]: 1100
MFI [29]: 625
MFI [30]: 31500 MFI
MFI [31]: 16000 MFI
MFI [32]: 14000 MFI
MFI [33]: 109 MFI
MFI [34]: 110
MFI [35]: 419
MFI [36]: 15100 MFI
B1: Hab014VL1VH2-hFc (scFv, part only; not given: VL-VH linker and human IgG1 Fc, V domains shown, not shown: another chain or arm of the molecule; a dimerising Fc or GST; small tags and cut ends)
VL: DIQMTQSPSSLSASVGDRVTITCKASEDIYNRLAWYQQKPGKVPKLLISGATSLETGVPSRFSGSGSGTDFTLTISSLQPEDVATYYCQQYWSLPWTFGGGTKVEIK
VH: EVQLVQSGAEVKKPGASVKVSCKASGYTFTDYYMNWVRQAPGQRLEWMGDINPNHGDTGYNQKFTGRVTLTVDKSASTAYMELSSLRSEDTAVYYCARNFFYYGTTYGWYFDVWGQGTTVTVSS

MFI [1]: 554
MFI at 0.00128 nM [2]: 91 MFI
MFI at 0.0064 nM [2]: 99 MFI
MFI at 0.032 nM [2]: 120 MFI
MFI at 0.16 nM [2]: 207 MFI
MFI at 0.8 nM [2]: 407 MFI
MFI at 4 nM [2]: 610 MFI
MFI at 20 nM [2]: 796 MFI
MFI at 100 nM [2]: 1110 MFI
MFI [3]: 142
Kd [4]: 111 pM
koff [4]: 0.000135 s⁻¹
kon [4]: 1.21e+06 M⁻¹ s⁻¹
MFI [5]: 355 MFI
MFI [6]: 2380 MFI
MFI [7]: 200 MFI
Emax of OD450 nm binding value [8]: 0.17 OD450 nm
MFI [9]: 10100 MFI
MFI [10]: 308 MFI
Emax of OD450 nm binding value [11]: 0.25 OD450 nm
MFI [12]: 231 MFI
MFI [13]: 287 MFI
MFI [14]: 1670 MFI
MFI [15]: 661 MFI
MFI [16]: 152 MFI
MFI [17]: 272 MFI
MFI [18]: 25300 MFI
MFI [19]: 754
MFI [20]: 705 MFI
MFI [21]: 374 MFI
MFI [22]: 204 MFI
MFI [23]: 217
MFI [24]: 118 MFI
MFI [25]: 33000 MFI
MFI [26]: 8420 MFI
MFI [27]: 322 MFI
MFI [28]: 1110
MFI [29]: 624
MFI [30]: 33000 MFI
MFI [31]: 16400 MFI
MFI [32]: 15400 MFI
MFI [33]: 109 MFI
MFI [34]: 113
MFI [35]: 428
MFI [36]: 16100 MFI
B2: Hab014VL2VH1-hFc (scFv, part only; not given: scFv linker and human IgG1 Fc, V domains shown, not shown: another chain or arm of the molecule; a dimerising Fc or GST; small tags and cut ends)
VL: B1 VL with T69K
VH: B1 VH with L70I

MFI [1]: 755
MFI at 0.00128 nM [2]: 101 MFI
MFI at 0.0064 nM [2]: 117 MFI
MFI at 0.032 nM [2]: 171 MFI
MFI at 0.16 nM [2]: 362 MFI
MFI at 0.8 nM [2]: 663 MFI
MFI at 4 nM [2]: 726 MFI
MFI at 20 nM [2]: 770 MFI
MFI at 100 nM [2]: 1090 MFI
MFI [3]: 127
MFI [5]: 1410 MFI
MFI [6]: 883 MFI
MFI [7]: 125 MFI
Emax of OD450 nm binding value [8]: 0.71 OD450 nm
MFI [9]: 4080 MFI
MFI [10]: 1230 MFI
Emax of OD450 nm binding value [11]: 0.82 OD450 nm
MFI [12]: 122 MFI
MFI [13]: 169 MFI
MFI [14]: 1150 MFI
MFI [15]: 371 MFI
MFI [16]: 185 MFI
MFI [17]: 870 MFI
MFI [18]: 6080 MFI
MFI [19]: 937
MFI [20]: 294 MFI
MFI [21]: 1530 MFI
MFI [22]: 390 MFI
MFI [23]: 216
MFI [24]: 131 MFI
MFI [25]: 6850 MFI
MFI [26]: 3960 MFI
MFI [27]: 153 MFI
MFI [28]: 1220
MFI [29]: 827
MFI [30]: 6530 MFI
MFI [31]: 11300 MFI
MFI [32]: 9720 MFI
MFI [33]: 121 MFI
MFI [34]: 117
MFI [35]: 430
MFI [36]: 10900 MFI
B3: Hab015VL5VH6a-hFc (scFv, part only; not given: scFv linker and human IgG1 Fc, V domains shown, not shown: another chain or arm of the molecule; a dimerising Fc or GST; small tags and cut ends)
VL: NIQMTQSPSSLSASVGDRVTITCKASENVGTYVSWYQQKPGKSPKLLIYGASNRYTGVPSRFSGSGSGTDFTLTISSLQPEDFATYYCGQFYSFPSTFGGGTKVEIK
VH: EVQLVESGGGLVKPGGSLRLSCAASGITFSNFWMNWVRQAPEKGLEWVGQIRLKSDDYATHYAESVKGRFTISREDSKNTVYLQMNSLKTEDTAVYYCTTGYYFDYWGQGTTVTVSS
